Results taken from paper doi:10.1101/2020.10.08.331538 (bioRxiv, 2020).
Where a chain is given by its changes, count along the chain named. Names and notes keep the numbering of the source. Values joined by “and” are separate entries in the source; they are usually repeats but may differ in a detail not shown here. Equal entries are not always repeated.

Columns and labels:
[1] = target: Pv-M17Δ53-78, Pv-M17 N-terminal loop deletion mutant (Plasmodium vivax) (UniProt A5K3U9); assay: crystal structure
[2] = target: the molecule itself; assay: SEC
[3] = target: the molecule itself; assay: AUC
[4] = target: the molecule itself; assay: SEC-MALS
[5] = target: the molecule itself; assay: AUC; remark: listed apart in the source
[6] = target: the molecule itself; assay: AUC; remark: listed apart in the source

## Pv-M17Δ53-78, Pv-M17 N-terminal loop deletion mutant (from UniProt A5K3U9 73-621) (enzyme)
[1]
  stoichiometry N: 6

B1: Pv-M17, M17 aminopeptidase from Plasmodium vivax, wild type (residues 73 – 621) (enzyme)
chain: MATTVPQVVSLDPTTIPIDYHTPIDDLSIEVKDISAEACPADEGLIVFLLNSAPKHSSSGGSGGNGGSAGSSGNGEGGAQIKINSSVKDNTINEFLKEGNMENFTGKLGTSKSFYIANDQKKYVSLAYVGCGPANEETELEIRKVAYALVTLLHDSKHKKVSIIFEIKIEEALFRFFLEHLFYEYVTDERFKSADKSTETDFIKNLSLHIANADAYKGQIDKARVYFYGTYYAAQLIAAPSNYCNPVSLSNAAVELAQKVNLECKILDVKELEELKMGAYLSVGKGSMYPNKFIHLTYKGAQTGASQNEKKKIALIGKGITFDSGGYNLKAAPGSMIDLMKFDMSGCAAVLGCAYCIGTIKPDNVEVHFLSAVCENMVSKNSYRPGDIITASNGKTIEVGNTDAEGRLTLADALVYAEKLGVDYIVDIATLTGAMLYSLGTSYAGVFGNNDQLINKILSSSKTSNEPVWWLPIINEYRSSLNSKYADLNNISSSVKASSVVASLFLKEFIENTPWAHIDIAGVSWNFKARKPKGFGVRLLTEFVLNDAV
[2]
  stoichiometry N: 4
[3]
  stoichiometry N: 6
[4]
  stoichiometry N: ~6 and ~2
[5]
  stoichiometry N: 2

B2: PfA-M17, M17 aminopeptidase from Plasmodium falciparum, wild type (enzyme)
chain: MASEVPQVVSLDPTSIPIEYNTPIHDIKVQVYDIKGGCNVEEGLTIFLVNNPGKENGPVKISSKVNDKNVSEFLKDENMEKFNVKLGTSKHFYMFNDNKNSVAVGYVGCGSVADLSEADMKRVVLSLVTMLHDNKLSKLTVVFEINVDKNLFRFFLETLFYEYMTDERFKSTDKNVNMEYIKHLGVYINNADTYKEEVEKARVYYFGTYYASQLIAAPSNYCNPVSLSNAAVELAQKLNLEYKILGVKELEELKMGAYLSVGKGSMYPNKFIHLTYKSKGDVKKKIALVGKGITFDSGGYNLKAAPGSMIDLMKFDMSGCAAVLGCAYCVGTLKPENVEIHFLSAVCENMVSKNSYRPGDIITASNGKTIEVGNTDAEGRLTLADALVYAEKLGVDYIVDIATLTGAMLYSLGTSYAGVFGNNEELINKILNSSKTSNEPVWWLPIINEYRATLNSKYADINNISSSVKASSIVASLFLKEFVQNTAWAHIDIAGVSWNFKARKPKGFGVRLLTEFVLNDAL
[6]
  stoichiometry N: 6
[4]
  stoichiometry N: ~6
[5]
  stoichiometry N: 2

B3: PfA-M17 (D379A + E461L) (enzyme)
chain: B2 chain with D296A, E378L
[5]
  binding result: binds
